From publication PMC7864056, “Functional and structural characterization of allosteric activation of phospholipase Cε by Rap1A” (The Journal of Biological Chemistry, 2020)

How the values were obtained:
Assay in all cases: cell-based or functional assay
[1] = biological target: R. norvegicus PLCε PH-COOH variant (residues 837-2282) (R. norvegicus, UniProt Q99P84 837-2281)
[2] = biological target: R. norvegicus PLCε PH-COOH K2150A (R. norvegicus, UniProt Q99P84 837-2281, K2150A)
[3] = biological target: R. norvegicus PLCε PH-COOH K2152A (R. norvegicus, UniProt Q99P84 837-2281, K2152A)
Chain of R. norvegicus PLCε PH-COOH K2152A (Q99P84 837-2281 K2152A): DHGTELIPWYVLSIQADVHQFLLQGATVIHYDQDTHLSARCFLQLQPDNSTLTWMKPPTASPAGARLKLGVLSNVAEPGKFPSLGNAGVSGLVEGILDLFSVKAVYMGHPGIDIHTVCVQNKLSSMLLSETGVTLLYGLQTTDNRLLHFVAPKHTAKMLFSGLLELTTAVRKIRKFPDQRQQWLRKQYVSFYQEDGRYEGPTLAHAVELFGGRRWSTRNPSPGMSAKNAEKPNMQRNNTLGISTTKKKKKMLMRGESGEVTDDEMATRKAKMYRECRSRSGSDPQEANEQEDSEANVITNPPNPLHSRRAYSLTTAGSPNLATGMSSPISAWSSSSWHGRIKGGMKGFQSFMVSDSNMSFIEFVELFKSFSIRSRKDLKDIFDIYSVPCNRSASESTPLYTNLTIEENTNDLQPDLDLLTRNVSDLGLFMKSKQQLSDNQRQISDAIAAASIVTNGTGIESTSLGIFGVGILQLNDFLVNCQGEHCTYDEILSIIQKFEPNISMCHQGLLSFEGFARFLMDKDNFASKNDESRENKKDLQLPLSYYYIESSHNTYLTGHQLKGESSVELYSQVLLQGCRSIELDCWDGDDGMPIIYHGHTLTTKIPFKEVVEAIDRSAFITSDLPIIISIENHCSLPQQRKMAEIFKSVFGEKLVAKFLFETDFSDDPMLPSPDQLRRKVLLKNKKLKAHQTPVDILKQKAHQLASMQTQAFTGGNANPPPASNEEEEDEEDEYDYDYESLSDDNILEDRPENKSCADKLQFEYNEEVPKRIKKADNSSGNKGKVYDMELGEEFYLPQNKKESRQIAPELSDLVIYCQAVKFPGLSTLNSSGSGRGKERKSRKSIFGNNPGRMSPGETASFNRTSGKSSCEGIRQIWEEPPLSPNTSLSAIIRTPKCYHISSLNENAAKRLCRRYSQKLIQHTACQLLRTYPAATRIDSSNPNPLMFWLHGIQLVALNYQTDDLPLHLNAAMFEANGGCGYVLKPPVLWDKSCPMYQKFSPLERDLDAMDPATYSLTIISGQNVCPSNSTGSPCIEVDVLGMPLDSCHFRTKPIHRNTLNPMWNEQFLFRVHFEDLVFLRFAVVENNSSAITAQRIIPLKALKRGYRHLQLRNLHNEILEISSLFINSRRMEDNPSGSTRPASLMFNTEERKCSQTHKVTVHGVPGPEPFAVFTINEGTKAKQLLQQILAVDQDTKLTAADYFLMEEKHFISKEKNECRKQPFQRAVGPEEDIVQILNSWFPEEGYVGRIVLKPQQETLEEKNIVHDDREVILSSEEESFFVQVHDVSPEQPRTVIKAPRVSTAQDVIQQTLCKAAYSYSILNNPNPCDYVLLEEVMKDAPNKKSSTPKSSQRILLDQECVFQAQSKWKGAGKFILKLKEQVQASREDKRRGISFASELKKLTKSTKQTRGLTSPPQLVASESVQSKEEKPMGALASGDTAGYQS

Chain of R. norvegicus PLCε PH-COOH K2150A (Q99P84 837-2281 K2150A): as the sequence (Q99P84 837-2281 K2152A) above, with K1314A, A1316K counted along it
Chain of R. norvegicus PLCε PH-COOH variant (residues 837-2282) (Q99P84 837-2281, stated change not applied): as the sequence (Q99P84 837-2281 K2152A) above, with A1316K counted along it

B1: constitutively active and prenylated Homo sapiens Rap1A G12V, GTP-bound (natural protein, UniProt P62834 1-184, looked up)
chain: MREYKLVVLGSVGVGKSALTVQFVQGIFVEKYDPTIEDSYRKQVEVDCQQCMLEILDTAGTEQFTAMRDLYMKNGQGFALVYSITAQSTFNDLQDLREQILRVKDTEDVPMILVGNKCDLEDERVVGKEQGQNLARQWCNCAFLESSAKSKINVNEIFYDLVRQINRKTPVEKKKPKKKSCLLL
modifications: prenylated
Fold activation by Rap1A^G12V of lipase activity, liposome-based [3H]PIP2 hydrolysis assay, increasing concentrations of Rap1A^G12V·GTP [1]: 3 fold | Fold activation by Rap1A^G12V of lipase activity, liposome-based [3H]PIP2 hydrolysis assay [2]: 1.8 fold | Fold activation by Rap1A^G12V of lipase activity, liposome-based [3H]PIP2 hydrolysis assay [3]: 0.9 fold
